From US20150140043A1, “IMMUNOMODULATORY METHODS USING NOTCH AGONISTS” (INSTITUT NATIONAL DE LA SANTE DE LA RECHERCHE MEDICAL …, priority 2012, published 2015)

Tests used:
[1] = target: NOTCH on human CD4+CD25- effector T cells; assay: cell-based or functional assay
[2] = system: CD4+CD25- T cell proliferation; assay: Suppression assay: CD4+CD25- T cells co-cultured with Treg plus anti-CD3, with or without g-secretase inhibitor, [3H]thymidine incorporation; assay type: cell-based, human; details: for Treg-mediated suppression (percentage of inhibition of CD4+CD25- T cell proliferation): GSI added at the beginning of the coculture (10 μM), anti-CD3 1 μg/ml, 5 days, mean+/-SD
Procedure: FIG. 1: NOTCH signalling is involved in Treg mediated inhibition of anti-CD3 stimulated CD4^+CD25^− T cell proliferation • A) Various ratio of CD4^+CD25^− T cells and CD4^+CD25^high T cells were cultured for 5 days in coated wells with anti-CD3 (1 μg/ml) in the presence or not of inhibitor of g-secretase (GSI 10 μM). Percentages of inhibition were calculated from the raw data using the equations: 1—(mean cpm of co-culture wells divided by mean cpm of CD4^+CD25^− cells cultured alone)×100. The data represent the mean±SEM and are representative of 5 independent experiments. * indicates P<0.05. • B) CD4^+CD25^−T cells were cultured for 18 hours in coated wells with anti-CD3 and NOTCH ligands (5 μg/ml) or IgG control (5 μg/ml). Then, T cells were washed and incubated for 5 days in coated wells with anti-CD3 in the absence or presence of Treg at ratio 1:8. The data represent the mean±SEM of inhibition of T cell proliferation of 5 independent experiments.
Peripheral blood mononuclear cells were separated by Ficoll-Hypaque centrifugation (Amersham Biosciences) from buffy coats obtained from healthy blood donors (EFS, Créteil). CD4^+ CD25^− T cells and CD4^+CD25^high T cells were isolated using a CD4^+ T cell enrichment column and a human CD4^+CD25^+ Treg isolation kit purchased from Miltenyi Biotec. CD4^+CD25^− cells and CD4^+CD25^+ cells were enriched to greater than 95% purity. […]
A total of 2.5×10^4 CD4^+CD25^− T cells were cultured with various ratios of CD4^+CD25^high cells and 1 μg/ml of anti-CD3 for 5 days, in the presence or absence of 10 μm of the gamma-secretase inhibitor Compound E. A total of […] [^3H] thymidine (Amersham Pharmacia) was added to the wells during the last 16 hours of culture. The cells were then harvested and assessed for [^3H] thymidine incorporation using a liquid scintillation counter. Results were expressed as mean cpm of quadriplicate culture wells.
Percentage of inhibition was calculated as follows: 1−(mean cpm of co-culture wells divided by mean cpm of CD4^+CD25^− cells cultured alone)×100. […]

TGF-βRII RNA expression = assay: Quantitative real-time PCR of TGF-βRII transcripts in CD4+CD25- T cells; assay type: cell-based, human; details: coated anti-CD3 and DL-4 or Jagged-1 for 3 hours, in the presence of GSI
Procedure: FIG. 3: TGF-βRII expression on effector T cells after NOTCH ligands exposure • A) CD4^+CD25^−T cells were purified using Miltenyi microbeads from PBMC and cultured for 3 hours in coated wells with anti-CD3 (200 ng/ml) and NOTCH ligands (5 μg/ml) or IgG control (5 μg/ml). Quantitative real-time PCR was performed to measure the transcripts levels of TGF-βRII. Data shown are mean±SEM and are representative of 4 independent experiments. * indicates P<0.05. • B) Protein levels of TGF-βRII in CD4^+CD25^−T cells stimulated to DL-1, DL-4 and Jagged-1 using FACS analysis. Mean of fluorescence are represented±SEM. * indicates P<0.05.
CD4^+CD25^− T cells were cultured for 3 hours in coated wells with anti-CD3 (200 ng/ml) and NOTCH ligands (5 μg/ml) or IgG control (5 μg/ml). Total RNA was extracted with Trizol (Invitrogen) and purified by chloroform extraction. RNA was then reverse transcribed using 1 mM oligodT and the Superscript™ HH Rnase H-reverse transcriptase (Invitrogen Life technologies) according to the manufacturer's instructions. Quantitative PCR was performed in a LightCycler System (Roche diagnostics) using a SYBR Green PCR kit from Roche Diagnostics. The cDNA input for each population was normalized to obtain equivalent signals with Splicing Factor 3A1 (SF3A1) used as housekeeping gene. Primers used were: […]
Active TGF-β mediates its biological functions by binding to TGF-β type I and type II receptors (TGF-βRII). Therefore, the effects of NOTCH activation on TGF-βRII expression of effector T cells were first investigated. […] This effect is abrogated in the presence of GSI (P<0.05 for comparison with culture performed without GSI vehicle).

Compound	Percentages of inhibition of cell proliferation (CD4+CD25- T cells pre-exposed to ligand, co-cultured with Treg at ratio 1:8) [1]	TGF-βRII RNA expression, fold increase against IgG control (real-time PCR, 3 hours) [1]	expression of TGF-βRII on CD4+CD25- T cells after 48 hours on ligand (flow cytometry, MFI; IgG control MFI 53) [1]	mean inhibition of T cell proliferation (co-culture with Treg at ratio 1:16 on immobilized ligand) [1]	percentage of inhibition of CD4+CD25- T cell proliferation with anti-CD3, ligand and TGF-β (0.1 ng/ml) [1]	Treg-mediated suppression (percentage of inhibition of CD4+CD25- T cell proliferation) ([2]; Treg/Effector ratio 1:4)	Treg-mediated suppression (percentage of inhibition of CD4+CD25- T cell proliferation) ([2]; Treg/Effector ratio 1:8)	Effect on proliferation of CD4+CD25- T cells cultured alone ([2]; no Treg, data not shown)	Effect of GSI on the DL-4 / Jagged-1 induced increase in TGF-βRII RNA expression (TGF-βRII RNA expression)
DL-4-Fc (from UniProt Q9NR61 27-529) (Fc fusion)	64.2%	4.4 fold	166 MFI	47%	74.1%	–	–	–	–
Jagged-1-Fc (from UniProt P78504 34-1067) (Fc fusion)	65%	2.8 fold	130 MFI	65%	87.8%	–	–	–	–
C[C@H](NC(=O)Cc1cc(F)cc(F)c1)C(=O)N[C@H]1N=C(c2ccccc2)c2ccccc2N(C)C1=O [GSI, Compound E]	–	–	–	–	–	46.9%	49.3%	did not affect the proliferation	abrogated
DL-1-Fc (from UniProt O00548 18-545) (Fc fusion)	64.8%	–	85 MFI	–	42.9%	–	–	–	–
